Experimental findings from article doi:10.1101/2025.09.08.674899 (bioRxiv, 2025) are described below.

For this experiment, the target named is T1, PSAF subunit of Chlamydomonas reinhardtii Photosystem I (Chlamydomonas reinhardtii (endogenous …, UniProt P12356 63-227)).
T1 sequence (looked up): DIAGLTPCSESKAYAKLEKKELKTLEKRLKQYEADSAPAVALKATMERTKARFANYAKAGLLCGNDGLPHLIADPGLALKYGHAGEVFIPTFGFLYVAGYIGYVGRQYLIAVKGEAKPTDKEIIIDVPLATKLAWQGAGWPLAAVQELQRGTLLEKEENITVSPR
The experiment in a line: cross-linking.

B1: Chlamydomonas reinhardtii cytochrome c6 E71Q (natural protein)
chain: ADLALGAQVFNGNCAACHMGGRNSVMPEKTLDKAALEQYLDGGFKVESIIYQVENGKGAMPAWADRLSEEQIQAVAEYVFKQATDAAWKY
modifications: heme (c-type cytochrome)
On to B1, for which the binding result is reported as “binds”.
